Measurements taken from patent US20230374140A1 (Memorial Sloan Kettering, published 2023).
Substitutions are numbered along the chain they refer to.

B1: Clone 19 scFv phage clone (Clone 19 scFv) (scFv)
scFv: NFMLTQPHSVSESPGKTVTISCVRSSGSVASEFVQWYQQRPGHAPTLVIYNDFQRPSGVPDRFSGSIDKSSNSASLTISGLKAEDEADYYCQSYDQSSSIVFGGGTKLTVLGSRGGGGSGGGGSGGGGSLEMAEVQLVQSGAEVKKPGESLKISCKGSGYSFTTYWIGWVRQMPGKGLEWMGIIYPGDSDTTYSPSFQGQVTISADKSLSIAYLQWSSLKASDTAMYYCARYGGQYFWSDSFDSWGQGTLVTVSS
B2: Clone 11 scFv phage clone (Clone 11 scFv) (scFv)
scFv: NFMLTQPHSVSESPGKTVTISCTRSSGSIASNYVQWYQQRPGSAPTTVIYEDNQRPSGVPDRFSGSIDSSSNSASLTISGLKTEDEADYYCQSYDSSNVVFGGGTKLTVLGSRGGGGSGGGGSGGGGSLEMAQVQLVQSGAEVRKPGASVKVSCKASGYSFTSNGITWVRQAPGQGLEWMGWISGYNANTRYAQEFQARVTMTTDTSASTAYMELRSLRSDDTAVYYCARHAYWGGDSDYWGQGTLVTVSS
B3: Clone 14 scFv phage clone (Clone 14 scFv) (scFv)
scFv: QSVLTQPPSVSAAPGQRVTISCSGSTSNIGSNYVSWYQQFPGTAPKLLIYDSDKRISGIPDRFSGSKSGTSATLGITGLQTGDEADYYCGTWDSSLTVGVFGGGTKVTVLGSRGGGGSGGGGSGGGGSLEMAQLQLQESGPGLVKPSGTLSLTCAVSGGSISSSNWWSWVRQPPGKGLEWIGEIYHSGSTNYNPSLKSRVTISVDKSKNQFSLKLSSVTAADTAVYYCARYFGQKYDYWGQGTLVTVSS
B4: Clone 18 scFv phage clone (Clone 18 scFv) (scFv)
scFv: QSVLTQPPSVSVAPGQKVTISCSGSSSNIGNNYVSWYQQLPGTAPKLLIYDNNKRPSGIPDRFSGSKSGTSATLGITGLQTGDEADYYCQSYDVYNMTSVFGGGTKLTVLGSRGGGGSGGGGSGGGGSLEMAQMQLVQSGAEVKKPGSSVKVSCKASGGTFSSYAISWVRQAPGQGLEWMGGIIPIFGTANYAQKFQGRVTITADESTSTAYMELSSLRSDDTAVYYCARGFSSWPGIDQWGQGTLVTVSS
B5: Clone 1 scFv phage clone (Clone 01 scFv) (scFv)
scFv: DIQLTQSPSSLSASVGDRVTITCRASQGIRNDLGWYQQKPGKAPKLMIYAASSLQSGVPSRFSGSGSGTDFTLTISSLQPEDFATYYCLQDYDYPLTFGGGTKLEIKRSRGGGGSGGGGSGGGGSLEMAEVQLVQSGAEVKKPGESLKISCEASGYSFSSNWIAWVRQRPGKGLEWMGIIYPGDSDTRYSPSFQGQVTMSADMSISTAYLQWSSLKASDTAMYYCARFAGPGMWSYGFDYWGQGTLVTVSS
notes: also called phage clone 1
B6: Clone 4 scFv phage clone (scFv, V domains shown)
VH: QVQLQQWGAGLLKPSETLSLTCAVYGGSFSGYYWSWIRQPPGKGLEWIGEINHSGSTNYNPSLKSRVTISVDTSKNQFSLKLSSVTAADTAVYYCARGVPYDYWGQGTLVTVSS
VL: QSVLTQPPSVSAAAGQKVTISCSGSRSNIGSNFVSWYQLLPGTAPRLLIYDNNVRPSGIPDRFSGSKSGSSATLGITGLQTGDEADYYCGTWDSSLIAGVFGGGTKLTVLG
B7: Clone 6 scFv phage clone (scFv, V domains shown)
VH: QVQLQQWGAGLLKPSETLSLTCAVYGGSFSGYYWSWIRQPPGKGLEWIGEINHSGSTNYNPSLKSRVTISVDTSKNQFSLKLSSVTAADTAVYYCARLEGSYYDVWGQGTLVTVSS
VL: QSVLTQPPSVSAAPGQKVTVSCSGTTSDIGSNYVTWYQQLPGTTPKLIIYDNNKRPSGIPDRFSGSKSGTSGTLGITGLQTGDEADYYCGTWDSSLNTFVFGTGTKVTVLG
B8: Clone 16 scFv phage clone (scFv, V domains shown)
VH: QVQLVQSGAEVKKPGASVKVSCKASGYTFTSYYMHWVRQAPGQGLEWMGIINPSGGSTSYAQKFQGRVTMTRDTSTSTVYMELSSLRSEDTAVYYCARRGWLSWGYYGMDVWGQGTTVTVSS
VL: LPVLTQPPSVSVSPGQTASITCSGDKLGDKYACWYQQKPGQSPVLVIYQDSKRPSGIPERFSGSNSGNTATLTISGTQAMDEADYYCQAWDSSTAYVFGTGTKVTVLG
B9: Clone 5 scFv phage clone (scFv, V domains shown)
VH: QLQLQESGPGLVKPSGTLSLTCAVSGGSISSSNWWSWVRQPPGKGLEWIGEIYHSGSTNYNPSLKSRVTISVDKSKNQFSLKLSSVTAADTAVYYCARFIYGSSSSQTDTWGQGTLVTVSS
VL: QSVLTQPPSVSAAPGQKVTISCSGSSSNIGSNYIYWYQQFPGTAPKLLIYDDNKRPSGIPDRFSGSRSGTSATLGITGLQTGDEADYYCGTWDSPLVAWVFGGGTKLTVLG
B10: Clone 12 scFv phage clone (scFv, V domains shown)
VH: QVQLQESGPGLVKPSGTLSLTCAVSGGSISSSNWWSWVRQAPGKGLEWIGEIYHGGSTNFNPSLKSRVTISVDKSKNQFSLNLTSVTAADTAVYYCARYASSSHDFWGQGTLVTVSS
VL: QSVLTQPPSVSAAPGQRVTIYCSGSRSNIVSNYVSWYQQLPGTAPKLLIYDNNKRPSGIPDRFSGSKSGTSATLGITGLQTGDEADYYCGTWDSSLSAYVFGTGTKVAVLG
B11: Clone 10 scFv phage clone (scFv, V domains shown)
VH: QVQLQESGPGLVKPPGTLSLTCAVSGGSISSSNWWSWVRQPPGKGLEWIGEIYHSGSTNYNPSLNSRVIISDDTSKNQFSLTLTSVTAADTAVYYCARYYNSYYDSWGQGTLVTVSS
VL: B10 VL with R17K, Y21S, R26S, V30G, A108T
B12: Clone 9 scFv phage clone (scFv, V domains shown)
VH: B10 VH with S15P, A41P, G55S, F60Y, N82K, T84S, A100E, S101Q, S102G, F106S
VL: B10 VL with R17K, Y21S, R26S, V30G, V34I, N53S, S66F, T103S, A108T
B13: Clone 15 scFv phage clone (scFv, V domains shown)
VH: QVQLQESGPGLVKPSGTLSLTCAVSGGSISSSNWWSWVRQPPGKGLEWIGEIYHSGSTNYNPSLKSRVTISVDKSKNQFSLKLSSVTAADTAVYYCARYPGFVWDLWGQGTLVTVSS
VL: B10 VL with R17K, Y21S, R26S, V30G, T73I, S97T, Y99G, A108T
B14: Clone 2 scFv phage clone (scFv, V domains shown)
VH: QVQLVQSGAEVKKPGSSVKVSCKASGGTFSSYAISWVRQAPGQGLEWMGWISAYNGNTNYAQKLQGRVTMTTDTSTSTAYMELRSLRSDDTAVYYCARKGFYSGFDSWGQGTLVTVSS
VL: B10 VL with R17K, Y21S, R26S, V30G, N53T, T70S, G90E, W92L, A108T
notes: also called phage clone 2
B15: Clone 8 scFv phage clone (scFv, V domains shown)
VH: QLQLQESGPGLVKPSETLSLTCTVSGDSISGYYWSWIRQPPGKGLEWIGEINHSGSTNYNPSLKSRVTISVDTSKNQFSLKLSSVTAADTAVYYCARYYSGFYSSDGWGQGTLVTVSS
VL: B10 VL with G15R, R17K, Y21S, R26S, V30G, K67R, T91S, A98V, A108T

The binders below were run against T1, NC1 peptide … / HLA-A*02:01 complex (human) (assay: FACS, scFv phage on T2 cells loaded with single peptide).
T1 construct: whole, on cells; On pulsed T2 cells; also pulled down from BV173 lysate (HLA-A*02) and presented on JMN cells
B1: no binding.
B2: no binding.
B3: no binding.
B4: no binding.
B5: no binding.

These binders were tested against T2, NC2 peptide … / HLA-A*02:01 complex (human) in the same assay as above.
T2 construct: whole, on cells; On pulsed T2 cells; also presented on JMN cells (HLA-A*02)
B1: no binding.
B2: no binding.
B3: no binding.
B4: no binding.
B5: no binding.

The binders below were run against T3, NC4 peptide … / HLA-A*02:01 complex (human) in the same assay as above.
T3 construct: whole, on cells; On pulsed T2 cells
B1: no binding.
B2: no binding.
B3: no binding.
B4: no binding.
B5: no binding.

What follows are binders tested against T4, NC3 peptide … / HLA-A*02:01 complex (human) in the same assay as above.
T4 construct: whole, on cells; On pulsed T2 cells; also pulled down from BV173 lysate (HLA-A*02)
B1: no binding.
B2: no binding.
B3: no binding.
B4: no binding.
B5: no binding.

These binders were tested against T5, NDC80 Peptide A … / HLA-A*02:01 complex (human) (assay: FACS, scFv phage on peptide-loaded T2 cells).
T5 construct: whole, on cells; On peptide-pulsed T2 cells (HLA-A*02:01+); also called NDC80/HLA-A*02:01 complex; NDC80/MHC I
Description: 34 human phage scFv libraries were used to pan against NDC80/HLA-A*02:01 complex. In order to avoid the conformational change of MHC I complex introduced by immobilizing the protein complex onto plastic surfaces, cell panning was used in place of conventional plate panning. In cell panning, the human scFv phage libraries were first mixed with T2 cells loaded with control peptides to remove scFv phage clones that bind to T2 cells alone or MHC alone. […] T2 is a TAP-deficient, HLA-A*02:01⁺ lymphoblast cell line that express low amounts of HLA-A*02 on the cell surface and can only present exogenous peptides. […] After extensive washing with PBS, peptide-loaded T2 cells with bound scFv antibody phage were spun down. […] The panning was performed for 3 rounds to enrich scFv phage clones that bound NDC80/HLA-A*02:01 specifically.
B6: binds.
B7: binds.
B8: binds.
B1: binds.
B2: binds.
B3: binds.
B9: binds.
B10: binds.
B11: binds.
B12: binds.
B13: binds.
B14: binds.
B15: binds.
B4: binds.
B5: binds.
